Target: Cytosolic His-tag version of human IRE1α (IRE1ΔN-HIS) (human)

“Cytosolic His-tag version of human IRE1α (IRE1ΔN-HIS) (domain or fragment)” was tested. Which stoichiometry N did it give?
The stoichiometry N was 2.

Reference: PMC2818874
